In article PMC6189696, “Choline sulfatase from Ensifer (Sinorhizobium) meliloti: Characterization of the unmodified enzyme” (Biochemistry and Biophysics Reports, 2015):
One block for each molecule: values may come before it.

Columns and labels:
[1] = biological target: T1, choline-O-sulfatase (COS) (Sinorhizobium meliloti, UniProt O69787); test: isothermal titration calorimetry, multiple injections; type: biochemical; settings: substrate inhibition constant, second site; 200 mM Tris-HCl pH 7.5, 500 mM NaCl, 25 °C; enzyme without FGly
T1 construct: gene betC; full length, C-terminal His6 tag kept, pET26b+, codon-optimized gene, E. coli BL21(DE3); 59 kDa, homodimer (123 kDa); active-site Cys54 unmodified (no formylglycine)
From the text: (§1) isothermal titration calorimetry, multiple injections on choline-O-sulfatase (COS)

[2] = biological target: T1, choline-O-sulfatase (COS); test: spectrophotometric pNPS hydrolysis, […] nm; type: biochemical
[3] = substrate: C[N+](C)(C)CCOS(=O)(=O)[O-]; test: isothermal titration calorimetry, multiple injections; type: biochemical, Sinorhizobium meliloti; settings: 200 mM Tris-HCl pH 7.5, 500 mM NaCl, 25 °C, fit with substrate inhibition, enzyme without FGly
From the text: as §1

[4] = biological target: the molecule itself; test: SEC; analytical gel filtration on Superdex 200 10/300 GL, non-denaturing conditions, calibrated with Bio-Rad Gel Filtration Standard (1.35-670 kDa)
purified protein [5] = substrate: Cc1cc(=O)oc2cc(OS(=O)(=O)O)ccc12; test: purified protein; type: biochemical, Sinorhizobium meliloti; settings: 200 mM Tris-HCl pH 7.5, 500 mM NaCl, 25 °C, 1-20 mM substrate, no saturation reached, enzyme without FGly
purified protein [6] = substrate: O=[N+]([O-])c1ccc(OS(=O)(=O)O)cc1; test: purified protein; type: biochemical, Sinorhizobium meliloti; settings: 200 mM Tris-HCl pH 7.5, 500 mM NaCl, 25 °C, 1-80 mM substrate, no saturation reached, enzyme without FGly

Molecule: C[N+](C)(C)CCOS(=O)(=O)[O-] [choline-O-sulfate]
Ki (mM) ^a [1]: 11.4 ± 1.1 mM

Ki [2]: 57.8 mM
Molecule: C[N+](C)(C)CCO [choline]

B1: Ensifer (Sinorhizobium) meliloti choline-O-sulfatase (enzyme, UniProt O69787 1-512, looked up)
chain: MTTGKPNILIIMVDQLNGKLFPDGPADFLHAPNLKALAKRSARFHNNYTSSPLCAPARASFMAGQLPSRTRVYDNAAEYQSSIPTYAHHLRRAGYYTALSGKMHFVGPDQLHGFEERLTTDIYPADFGWTPDYRKPGERIDWWYHNLGSVTGAGVAEITNQMEYDDEVAFLANQKLYQLSRENDDESRRPWCLTVSFTHPHDPYVARRKFWDLYEDCEHLTPEVGAIPLDEQDPHSQRIMLSCDYQNFDVTEENVRRSRRAYFANISYLDEKVGELIDTLTRTRMLDDTLILFCSDHGDMLGERGLWFKMNFFEGSARVPLMIAGPGIAPGLHLTPTSNLDVTPTLADLAGISLEEVRPWTDGVSLVPMVNGVERTEPVLMEYAAEASYAPLVAIREGKWKYVYCALDPEQLFDLEADPLELTNLAENPRGPVDQATLTAFRDMRAAHWDMEAFDAAVRESQARRWVVYEALRNGAYYPWDHQPLQKASERYMRNHMNLDTLEESKRYPRGE
notes: choline-O-sulfatase (betC gene product) of Ensifer (Sinorhizobium) meliloti, GenBank AAC13371.1; gene codon optimized for E. coli and subcloned in pET26b+; expected 59 kDa with the His6-tag; Active-site Cys54 is unmodified (no formylglycine) as expressed in E. coli; two of the six cysteines form a disulfide bridge; also called COS; choline sulfatase; source: E. coli BL21 (DE3), purified (His-Trap …)
Km [3]: 11.1 ± 1.0 mM
kcat [3]: 0.27 ± 0.02 s⁻¹
kcat/Km [3]: 24.3 ± 2.84 M⁻¹ s⁻¹
stoichiometry N [4]: 2
Km (purified protein [5]): 11.8 ± 1.4 mM
kcat (purified protein [5]): 0.043 ± 0.007 s⁻¹
kcat/Km (purified protein [5]): 3.64 ± 0.73 M⁻¹ s⁻¹
Km (purified protein [6]): 75.8 ± 15.0 mM
kcat (purified protein [6]): 0.035 ± 0.004 s⁻¹
kcat/Km (purified protein [6]): 0.46 ± 0.11 M⁻¹ s⁻¹
